{"source": "patent US20200102399A1", "about": "“Methods of Treating Peripheral T Cell Lymphoma Using Anti-CD30 Antibody Drug Conjugate Therapy” (Seattle Genetics, Inc., priority 2018, published 2020)", "system": "newly diagnosed CD30-positive mature T- and NK-cell neoplasms, including sALCL", "assay": "Phase 1 study SGN35-011: brentuximab vedotin with CHOP or CHP chemotherapy", "format": "in vivo, human", "conditions": "given concomitantly with CHP", "from_the_text": "The clinical safety and activity of brentuximab vedotin administered sequentially and concurrently with multiagent chemotherapy were previously evaluated in a phase 1 study in patients with newly diagnosed CD30-positive mature T- and NK-cell neoplasms, including sALCL (Study SGN35-011). This phase 1 study was implemented to determine the safety and activity of sequential and combination frontline treatment approaches of brentuximab vedotin with CHOP or CHP chemotherapy. The maximum tolerated dose of brentuximab vedotin was 1.8 mg/kg given concomitantly with CHP. At an interim analysis in this study (data presented at the T-Cell Lymphoma Forum 2012), 20 patients in this study had been treated with brentuximab vedotin 1.2 or 1.8 mg/kg given concomitantly with CHP for 6 cycles, followed by continued brentuximab vedotin every 3 weeks for up to 10 additional cycles for responding patients.", "data": [{"substance": "brentuximab vedotin", "values": [{"measurement": "maximum tolerated dose", "value": 1.8, "unit": "mg/kg"}]}]}
